For experiment [1], the target named is Syk tandem SH2 (tSH2) domain. The experiment is described as follows: FP; 20 mM KCl, 130 mM NaCl.
For experiment [2], the target named is Syk tandem SH2 (tSH2) domain. The experiment is described as follows: FP; 5 mM KCl, 145 mM NaCl.
For experiment [3], the target named is Syk tandem SH2 (tSH2) domain. The experiment is described as follows: FP; 50 mM KCl, 100 mM NaCl.
For experiment [4], the target named is Syk tandem SH2 (tSH2) domain. The experiment is described as follows: FP; 0 mM KCl, 150 mM NaCl.
Experiment [5] has as its target Syk tandem SH2 (tSH2) domain. The experiment is described as follows: intrinsic Trp fluorescence; 0 mM KCl, 150 mM NaCl.
Experiment [6] concerns the target Syk tandem SH2 (tSH2) domain. The experiment is described as follows: intrinsic Trp fluorescence; 50 mM KCl, 100 mM NaCl.
The target in experiment [7] is Syk tandem SH2 (tSH2) domain. The experiment is described as follows: intrinsic Trp fluorescence; 5 mM KCl, 145 mM NaCl.
Experiment [8] addresses Syk tandem SH2 (tSH2) domain. Nature of the experiment: intrinsic Trp fluorescence; 20 mM KCl, 130 mM NaCl.

Non-standard residues stand in square brackets, D forms with d. No end group written: not given here. pY = N[C@@H](Cc1ccc(OP(=O)(O)O)cc1)C(=O)O

The Kd is the free concentration of one partner at which half of the binding sites on the other are occupied at equilibrium, for simple one-to-one binding. A higher Kd goes with a looser complex. With NQL[pY]NELNLGRREE[pY]DVLD (also: AlexaFluor 488 label, position not given here) [ITAM-ζ1-Y2P peptide labeled with AlexaFluor488], the Kd stood at 81.1 nM in experiment [1], 85.5 nM in experiment [2], 84.9 nM in experiment [3] and 85.5 nM in experiment [4].
On to NQL[pY]NELNLGRREE[pY]DVLD [ITAM-ζ1-Y2P peptide (doubly phosphorylated first ITAM of the CD3-ζ chain)], for which the Kd turned out to be 97.5 nM in experiment [5], 82.7 nM in experiment [6], 86 nM in experiment [7] and 84.3 nM in experiment [8].
